Test results reported in patent publication US20260209365A1, “ANTI-COMMON GAMMA CHAIN PROTEINS AND COMPOSITIONS OF MATTER” (SINOMAB BIOSCIENCE LIMITED, priority 2023, published 2026).

Legend:
Format in all cases: cell-based, human
Conditions in all cases: ScFv 10 μg/ml
[1] = system: IL-15 induced STAT5 phosphorylation; test: Inhibition of IL-15 induced STAT phosphorylation in KHYG-1 NK cell line, flow cytometry
Source text: (§1) Cells were harvested and stained with FITC conjugated anti-pSTAT6, PE conjugated anti-pSTAT3 or APC con jugated anti-pSTAT5 antibodies for flow cytometry analyses. In some embodiments, the purified ScFv could block the IL-4 induced STAT6 phosphorylation in cell culture (e.g., Ramos). In some embodiments, the purified ScFv could block the IL-7 induced STAT5 phosphorylation in cell culture (e.g., HPB-ALL). In some embodiments, the purified ScFv could block the IL-9 induced STAT3 phosphorylation in cell culture (e.g., Jurkat). In some embodiments, the purified ScFv could block the IL-15 induced STAT5 phosphorylation in cell culture (e.g., KHYG-1). In some embodiments, the purified ScFv could block the IL-21 induced STAT3 phosphorylation in cell culture (e.g., Ramos).
(§2) Flow cytometry was employed to measure the percentage of p-STAT expressing cells after cytokine induction and anti-γc ScFv treatment. KHYG-1 (Creative Bioarray, Shirley, NY 11967, USA) was starved in IL-2 free RPMI1640 (ATCC modification, ThermoFisher Scientific, Waltham, MA, USA) with 10% FBS (ThermoFisher Scientific) for 2 days. Ramos, HPB-ALL and Jurkat cell lines were used directly without starvation. Cells were replenished with fresh RPMI1640 medium and pretreated with anti-γc ScFv (10 μg/mL) for an hour. After treatment with TL-4 (10 ng/ml, Sino Biological), IL-7 (50 ng/ml, Sino Biological), IL-9 (50 ng/ml, Sino Biological), IL-15 (10 ng/ml, Sino Biological) or IL-21 (10 ng/ml, Sino Biological) for 15 min, cells were fixed in 4% paraformaldehyde (PFA, Sigma, St. Louis, Missouri, USA) for 10 min, permeabilized in 0.1% Triton X-100 (Sigma) for 10 min and then stained with FITC conjugated anti-pSTAT6, PE conjugated anti-pSTAT3 or APC con jugated anti-pSTAT5 (all diluted in 1:100, Biolegend, San Diego, California, USA) for 30 min at 37° C. Percentage of p-STAT expressing cells was measured by BD FACSLyric™ Clinical Flow Cytometry System (BD Biosciences, New Jersey, USA). Data were analyzed by Flowjo (version 10, BD).
(§3) Different cell lines were used for testing. KHYG-1 refers to the NK cell line harvested from the peripheral blood of a person with aggressive NK cell leukemia. This cell line could respond to IL-2 and IL-15 stimulation in-vitro [Yamasaki et al., Leuk Res., […]; 28 (10): 1023-31]. Ramos is a human Burkitts Lymphoma cell line (CRL-1596™) and could be used as a model for IL-4 and IL-21 studies [Hui et al., Front Immunol., 2022; 13: 919854]. Jurkat is a human T lymphoblast cell line (Clone E6-1, TIB-152™) and is widely used in the T cell studies of IL-9 function. HPB-ALL is a T cell leukemia model established from the peripheral blood of a child with ALL and thymoma at diagnosis in 1973 and could be used for IL-7 functional studies.

[2] = system: IL-4 induced STAT6 phosphorylation; test: Inhibition of IL-4 induced STAT phosphorylation in Ramos B cell line, flow cytometry
Source text: as §1, §2, §3

[3] = system: IL-21 induced STAT3 phosphorylation; test: Inhibition of IL-21 induced STAT phosphorylation in Ramos B cell line, flow cytometry
Source text: as §1, §2, §3

[4] = system: IL-7 induced STAT5 phosphorylation; test: Inhibition of IL-7 induced STAT5 phosphorylation in HPB-ALL T cell line, flow cytometry
Source text: as §1, §2, §3

[5] = system: IL-9 induced STAT3 phosphorylation; test: Inhibition of IL-9 induced STAT3 phosphorylation in Jurkat T cell line, flow cytometry
Source text: as §1, §2, §3

Row | Molecule | p-STAT5 inhibition (%) [1] [%] | p-STAT6 inhibition (%) [2] [%] | p-STAT3 inhibition (%) [3] [%] | p-STAT5 inhibition (%) [4] [%] | p-STAT3 inhibition (%) [5] [%]
1 | SM-05J: anti-γc antibody; CDR SEQ ID NO: 148, 150, 152, 156, 158, 160 (antibody, V domains shown, left off: another chain or arm of the molecule; small tags and cut ends) VH: EVQLQQSGPELVKPGASVKISCKTSGYTFTEYTMHWVKQSHGKSLEWIGGIDPYNGGITYNQRFKGKATLTVDKSSSTAYMELRSLTSEDSAVYYCARRRLYYGYALDYWGQGTSVTVSS VL: DVVMTQTPLSLPVSLGDQASISCRSSQSIVHSNGNTYLEWYLQKPGQSPKLLIYKVSNRFSGVPDRFSGSGSGTDFTLKISRVEAEDLGVYYCFQGSHVPFTFGSGTKLEIK | 42.71 | 82.22 | 75.77 | 98.10 | 100
2 | SM-05L: anti-γc antibody; CDR SEQ ID NO: 180, 182, 184, 188, 190, 192 (antibody, V domains shown, left off: another chain or arm of the molecule; small tags and cut ends) VH: EVQLQQSGPELVKPGASVKISCKTSGYTFTEYTMHWVKQSHGKSLEWIGGIDPNSGGATYNQKFKGKATLTVDKSSSTAYMEVRSLTSEDSAVYYCARRRLYYGYAMDYWGQGTSVTVSS VL: DVLMTQTPLSLPVSLGGQASISCRSSQNIVHSNGNTYLEWYLQKPGQSPKLLIYKVSNRFSGVPDRFSGSGSGTDFTLKISRVEAEDLGVYFCSQSTHVPFAFGSGTKLEIK | 49.10 | 73.54 | 26.03 | 100 | 92.36
3 | SM-05B: anti-γc antibody; CDR SEQ ID NO: 20, 22, 24, 28, 30, 32 (antibody, V domains shown, left off: another chain or arm of the molecule; small tags and cut ends) VH: QVQLQQSGPELVKPGASVKIFCKTSGYTFTEYTMHWVKQSHGESLEWIGGIDPNTGGATYNQKFKGKATLTADKSSSTAYMELRSLTSEDSAVYYCARRRRYYGYALDYWGQGTSVTVSS VL: DVLMTQTPLSLPVSLGDQASISCRSSQSIVHSNGNTYLEWYLQKPGQSPKLLIYKVSNRFSGVPDRFSGSGSGTDFTLKISRVEAEDLGVYFCSQSTHVPWTFGGGTKLEIK | 47.06 | 76.95 | 13.85 | 94.50 | 82.64
4 | SM-05C: anti-γc antibody; CDR SEQ ID NO: 36, 38, 40, 44, 46, 48 (antibody, V domains shown, left off: another chain or arm of the molecule; small tags and cut ends) VH: QVQLQQSGPELVKPGASVKIFCKTSGYTFTEYTMHWVKQSHGESLEWIGGIDPNTGGATYNQKFKGKATLTADKSSSTAYMELRSLTSEDSAVYYCARRRRYYGYAMDYWGQGTSVTVSS VL: DVVMTQTPLSLPVSLGDQASISCRSSQSLVHSNGNTYLHWYLQKPGQSPKLLIYKVSNRFSGVPDRFSGSGSGTDFTLKISRVEAEDLGIYYCFQDSHVPFTFGSGTKLEIK | 46.04 | 45.99 | 29.10 | 100 | 97.92
5 | SM-05D: anti-γc antibody; CDR SEQ ID NO: 52, 54, 56, 60, 62, 64 (antibody, V domains shown, left off: another chain or arm of the molecule; small tags and cut ends) VH: QVQLQQSGPELVKPGASVKISCKTSGYTFTEYTMHWVKQSHGKSLEWIGGIDPYNGGVTYNQRFKGKATLTVDKSSSTAYMEFRSLTSEDSAVYYCARRRLYYGNALDYWGQGTSVTVSS VL: DIVMTQTPLSLPVSLGDQASISCRSSQSIVHRNGNTYLEWYLQKPGQSPKLLIYKVSNRFSGVPDRFSGSGSGTDFTLKISRVEAEDLGVYYCFQGSHVPFTFGSGTKLEIK | 48.59 | 63.77 | 30.00 | 99.80 | 100
